Assay results: article PMC10201364 (MicrobiologyOpen, 2023)

Tests used:
[1] = tested on: Ah-BarR WT (Acidianus hospitalis); assay: EMSA; details: no beta-alanine; octamer concentration; 20 mM Tris-HCl pH 8.0, 50 mM NaCl, 0.4 mM EDTA, 0.1 mM DTT, 1 mM MgCl2, 12.5% glycerol, 25 ug/mL salmon sperm DNA, 25 min at 37 C (EMSA)
[2] = tested on: T1, Ah-BarR WT (Acidianus hospitalis), ORF:d4ab5e4b; assay: EMSA; details: 20 mM Tris-HCl pH 8.0, 50 mM NaCl, 0.4 mM EDTA, 0.1 mM DTT, 1 mM MgCl2, 12.5% glycerol, 25 ug/mL salmon sperm DNA, 25 min at 37 C (EMSA)
T1 sequence: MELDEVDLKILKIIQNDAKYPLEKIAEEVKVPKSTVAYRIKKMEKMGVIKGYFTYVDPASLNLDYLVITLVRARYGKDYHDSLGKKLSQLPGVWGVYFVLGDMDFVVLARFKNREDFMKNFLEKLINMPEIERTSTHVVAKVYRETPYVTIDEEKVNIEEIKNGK

[3] = tested on: T2, Ah-BarR trunc (Acidianus hospitalis), ORF:d4ab5e4b; assay: EMSA; details: 20 mM Tris-HCl pH 8.0, 50 mM NaCl, 0.4 mM EDTA, 0.1 mM DTT, 1 mM MgCl2, 12.5% glycerol, 25 ug/mL salmon sperm DNA, 25 min at 37 C (EMSA)
T2 sequence: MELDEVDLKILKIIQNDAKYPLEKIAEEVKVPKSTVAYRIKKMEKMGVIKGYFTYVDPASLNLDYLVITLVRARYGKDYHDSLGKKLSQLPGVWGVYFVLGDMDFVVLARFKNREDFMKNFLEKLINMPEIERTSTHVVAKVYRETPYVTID

[4] = molecular target: Ah‐BarR M103T (P ah‐barR promoter, mKate2 reporter) (Acidianus hospitalis, UniProt F4B5V3, M103T); assay: cell-based; assay type: cell-based; details: BS1 M103T; 5 mM glutamine, 20 mg/L naringenin (Figure A7)
Protocol: (§1) Reporter gene assays were performed as previously described (Bernauw et al., [2022]). pPRC6 and pITC variants (Table 1) were co‐transformed in E. coli MG1655 chemical competent cells using heat shock transformation. Transformant colonies of the Ah‐BarR biosensor strains were picked to inoculate wells of a transparent 96‐well plate (Greiner Bio‐One), each well filled with 200 µL of MOPS EZ Rich Defined medium (Teknova), prepared without the addition of the 5X EZ Supplement, after which the plate was incubated overnight in a ThermoMixer C (Eppendorf) at 30°C and 300 rpm. Next, a black 96‐well plate was filled with a naringenin solution prepared in ethanol (250 mg/L or 2.5 g/L), after which a Breathe‐Easy sealing membrane (Sigma‐Aldrich) was applied and the ethanol was evaporated in a ThermoMixer C (Eppendorf) at 75°C. […] Finally, the plate was sealed again using a Breathe‐Easy sealing membrane (Sigma‐Aldrich).
(§2) Plates were incubated at 30°C and 300 rpm for 40 h in a Synergy H1 microplate reader (BioTek) with measurements of OD600 and fluorescence (excitation wavelength: 588 nm, emission wavelength: 633 nm) being taken every 20 min. The gain was set to 140 for all measurements, except for the measurements with the amino acids (pools and separately), where the gain was set to 150. […] In addition, wells solely containing medium were measured as well to correct for the background signal.
(§3) Reporter expression was analyzed at t = 30 h, when all cultures had reached the stationary phase, by taking into account three subsequent time points (t–1, t, t+1). The corrected FL/OD600 value was calculated for each replicate (n = 4) as follows: FL/ODcor=FLt−1−FLmed,t−1/ODt−1−ODmed,t−1+FLt−FLmed,t/ODt−ODmed,t+FLt+1−FLmed,t+1/ODt+1−ODmed,t+1/3
(§4) Response curves were fitted to a Hill function of the shape P(M)=b+aM^n/θ^n+M^nforaβ−alanine−inducible responseb+aθ^n/θ^n+M^nforaβ−alanine−repressible response according to a previously published procedure (Landry et al., [2018]) with minor adaptations. […] Briefly, lmfit 1.1.0 was used to fit all replicates of a response curve to the appropriate Hill function using the Levenberg‐Marquardt algorithm (Moré, [1978]; Newville et al., [2016]). […] The dynamic range was estimated as μ=a/b .

[5] = molecular target: Ah‐BarR M103N (P ah‐barR promoter, mKate2 reporter) (Acidianus hospitalis, UniProt F4B5V3, M103N); assay: cell-based; assay type: cell-based; details: BS1 M103N; 5 mM glutamine, 20 mg/L naringenin (Figure A7)
Protocol: as §1, §2, §3, §4

[6] = tested on: T1, Ah-BarR WT (Acidianus hospitalis), ORF:d4ab5e4b; assay: in-gel Cu-OP footprinting; details: 20 mM Tris-HCl pH 8.0, 50 mM NaCl, 0.4 mM EDTA, 0.1 mM DTT, 1 mM MgCl2, 12.5% glycerol, 25 ug/mL salmon sperm DNA, 25 min at 37 C (EMSA)

Ah‐BarR M103T (P ah‐barR promoter, mKate2 reporter), sequence (F4B5V3 entry or part of it M103T): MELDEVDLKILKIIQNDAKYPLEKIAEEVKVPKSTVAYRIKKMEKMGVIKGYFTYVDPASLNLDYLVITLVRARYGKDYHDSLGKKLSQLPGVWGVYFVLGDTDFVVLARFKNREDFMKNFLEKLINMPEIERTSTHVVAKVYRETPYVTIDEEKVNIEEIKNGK
Ah‐BarR M103N (P ah‐barR promoter, mKate2 reporter), sequence (F4B5V3 entry or part of it M103N): as the sequence (F4B5V3 entry or part of it M103T) above, with T103N counted along it

## WT promoter 274 bp
[1]
  Kd: 12 nM

## CTTTAAGTCTACCTCGTCTAGCTCCATAATATATAATTAGAAGAGGTAATTTAAACCTTATACATTTTATCGACGAATAAGTTGAATATACAATTTAATAAAAAGGGATTATCTTGGAAATTATACAGAGACATTCCAAAGCAAGATTTAAACTATTGTACTTTTTACAATAGCTGTCCTAAAATACTTAAATTCCGTCTAAACTACTAGTATCGCATGGATGAAGATGTCGTTAAATTGGTTAAAGAACATACTTTCGGAACTTGGAAAGTTC (double strand) [Promoter mutant 1 (mut1) 274 bp]
[2]
  Kd: 31 nM

## CTTTAAGTCTACCTCGTCTAGCTCCATAATATATAATTAGAAGAGGTAATTTAAACCTTATACATTTTATCGACGAATAAGTTGAATATACAACTAAATAAAAAGGGATTATCTTGGAAATTATACAGAGACATTCCAAAGCAAGATTTAAACTATTGTACTTTTTACAATAGCTGTCCTAAAATACTTAAATTCCGTCTAAACTACTAGTATCGCATGGATGAAGATGTCGTTAAATTGGTTAAAGAACATACTTTCGGAACTTGGAAAGTTC (double strand) [WT promoter 274 bp]
[2]
  Kd: 12 nM
  binding: binds
[3]
  binding: binds

## NC(=O)CC[C@H](N)C(=O)O [glutamine]
[4]
  glutamine response of reporter expression: did not lead to the acquisition of a glutamine‐specific response
[5]
  glutamine response of reporter expression: did not lead to the acquisition of a glutamine‐specific response

## CTTTAAGTCTACCTCGTCTAGCTCCATAATATATAATTAGAAGAGGTAATTTAAACCTTATACATTTTATCGACGAATAAGTTGAATATACAATTTAATAAAAAGGGATTATCTTGGAAATTATATTTAGACATTCCAAAGCAAGATTTAAACTATTGTACTTTTTACAATAGCTGTCCTAAAATACTTAAATTCCGTCTAAACTACTAGTATCGCATGGATGAAGATGTCGTTAAATTGGTTAAAGAACATACTTTCGGAACTTGGAAAGTTC (double strand) [Promoter mutant 2 (mut2) 274 bp]
[2]
  Kd: 36 nM

## CTTTAAGTCTACCTCGTCTAGCTCCATAATATATAATTAGAAGAGGTAATTTAAACCTTATACATTTTATCGACGAATAAGTTGAATATACAATTTAATAAAAAGGGATTATCTTGGAAATTATATTTAGACATTCCAAAGCAAGATTTAAACTATTGTACTTTTTATTTTAGCTGTCCTAAAATACTTAAATTCCGTCTAAACTACTAGTATCGCATGGATGAAGATGTCGTTAAATTGGTTAAAGAACATACTTTCGGAACTTGGAAAGTTC (double strand) [Promoter mutant 3 (mut3) 274 bp]
[2]
  binding: no binding

## CCTTATACATTTTATCGACGAATAAGTTGAATATACAACTAAATAAAAAGGGATTATCTTGGAAATTATACAGAGACATTCCAAAGCAAGATTTAAACTATTGTACTTTTTACAATAGCTGTCCTAAAATACTTAAATTCCGTCTAAACTACTAGTATCGCATGGATG (double strand) [WT promoter short 168 bp]
[6]
  binding: binds
